Measured values published in patent US20030223992A1 (SCHERING, published 2003).
Where no end group is shown, it is not given here.

B1: Human P513 (peptide)
peptide: KGGFSFRF-NH2
B2: Human P51 (peptide)
peptide: EHAGCRFRF-NH2
B3: Human P517 (peptide)
peptide: KKGGFSFRF-NH2
B4: Human P52 (peptide)
peptide: GGFSFRF-NH2

molecular target: T1, Human SP9155 receptor (human, UniProt Q96P65 1-431); experiment: cell-based or functional assay
T1 sequence: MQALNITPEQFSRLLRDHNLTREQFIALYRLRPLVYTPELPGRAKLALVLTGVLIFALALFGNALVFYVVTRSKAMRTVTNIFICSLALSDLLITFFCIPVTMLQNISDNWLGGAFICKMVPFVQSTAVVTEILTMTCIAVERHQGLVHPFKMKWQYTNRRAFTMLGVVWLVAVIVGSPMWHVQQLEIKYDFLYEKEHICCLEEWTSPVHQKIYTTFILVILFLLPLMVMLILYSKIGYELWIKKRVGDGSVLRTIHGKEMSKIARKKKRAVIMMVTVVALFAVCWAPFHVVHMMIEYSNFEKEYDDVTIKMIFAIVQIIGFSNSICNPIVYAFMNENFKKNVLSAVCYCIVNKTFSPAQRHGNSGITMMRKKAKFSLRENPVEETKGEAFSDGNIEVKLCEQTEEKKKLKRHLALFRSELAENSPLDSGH

Binder | EC50 (nM), Ca2+ flux (FLIPR) in HEK293 cells transfected with SP9155 receptor [nM]
B1 | 258
B2 | 1560
B3 | 235
B4 | 245
